{
  "source": "the nanobody polyreactivity screen of Harvey et al. (2022)",
  "data": [
    {"assay": "yeast display, Sf9 membrane polyspecificity reagent, FACS + sequencing; frameworks hold sequencing errors", "how_it_was_run": "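A synthetic nanobody library was expressed on Saccharomyces cerevisiae BJ5465 by galactose induction for 36–48 hours. The library was stained for 1 hour at 4 °C with 10% biotinylated, detergent-solubilized Sf9 membrane reagent and enriched with streptavidin microbeads before FACS. Low and high (top ~1%) gates were set on anti-HA fluorescence for expression and streptavidin fluorescence for reagent binding, and each polyreactivity label reflects the gate of origin.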", "values": [
      {"sequence": "QVQLVESGGGLVQAGGSLRLSCAASGSIFRVYAMGWYRQAPGKERELVAAISVSGGSTNYADSVKGRFTISRDNAKNTVYLQMNSLKPEDTAVYYCNRKQQVSSELDYWGQGTQVTVSS", "polyreactivity (PSR sort gate)": "low polyreactivity"},
      {"sequence": "QVQLEESGGGIVQAGGTLRLTCAASGRIYATNAMGWSRQAPGKERELVATITRSAGRTYYADSVKGRFTISGDNAKNTVYLQMNSLKPEDTAVYYCAASYWDTEPGYREYDYWGQGTEVTVSS", "polyreactivity (PSR sort gate)": "low polyreactivity"},
      {"sequence": "QVQLVESGGGLVQAGGSLRLSCAASGLIFYAYYMGWYRQAPGKERELVAAISYSGGSTYYADSVKGRFTISRDNAKNTVYLQMNSLKPEDTSVYYCAADDGISTYEYWGQGTQVTVSS", "polyreactivity (PSR sort gate)": "high polyreactivity"},
      {"sequence": "QVQLVESGGGLVQAGGSLRLSCAASGSTLAGYAMGWYRQAPGQERELVAAIDWTGGSTTYADSVKGRFTISRDNAKNTVYLQMNSLKPEDTAVYYCNVDLGVNCEYWGQGTQVTVSW", "polyreactivity (PSR sort gate)": "low polyreactivity"},
      {"sequence": "QVQLVESGGGLVQAGGSLRLSCAASGSIFTDNSMGWYRQAPGKERELVAAIDSVGSTYYADSVKGRFTISRDNAKNTVYLQMNSLKPEDTAVYYCAADLYFPYESYYWGQGTQVTVSS", "polyreactivity (PSR sort gate)": "low polyreactivity"},
      {"sequence": "QVKLVESAGGLVQARGSLRLSCAGSGITFVRNAMGWYRQAPGKERELVAAISSGGSTYYADSVKGRFTISRDNAKNTVYLQMNSLKPEDTAVYYCNAQIYGRLYRYRWHFYWGQGTQVTVSS", "polyreactivity (PSR sort gate)": "high polyreactivity"},
      {"sequence": "QVQLVESGGGLVQAGGSLRLSCAASGFTFYPNAMGWYRQAPGKERELVAAISRSGSSTYYADSVKGRFTISRDNAKNTVYLQMNSLKPEDTAVYYCNRYGRQYDFYYWGQGTQVTVSS", "polyreactivity (PSR sort gate)": "high polyreactivity"},
      {"sequence": "QVQLVESGGGIVQAGGSLRLSCAASGSIFDYYTKAWYRQAPGKEREMVAAISWSGGSTYYADSVKGRFTISRDNAKNTVYLQMYSLKPEDTAVYYCATRVRTRTGYQYYYWGQGTQVTVSS", "polyreactivity (PSR sort gate)": "high polyreactivity"},
      {"sequence": "QVQLVESGGVLVQAGCSIRLSCSASGLTFIQYAMGWYRQAPGKERELVAAINSGASTRYADSVKGRFTISRDNAKNTVYLQMNSLKPEDTAVYYCNARLRRYTNRYYKYYYWGQGTQVNVSS", "polyreactivity (PSR sort gate)": "high polyreactivity"},
      {"sequence": "QVQLVESGGGLVQAGGSLRLSCAASGRTFSYYTMGWDRQAPGKERELVASITSDSSTNYADSVKGRFTISRDNAKNTVYLQMNSLKPEHTAVYYCAADHWIAPRRDYWGQGTQVTVSS", "polyreactivity (PSR sort gate)": "low polyreactivity"},
      {"sequence": "QVQLVESGGGIVQAGGRLRLSCAASGRIFYYNAMGWYRQAPGQERELVAVISRNGGRTYYADSVKGRFTISRDNAKNTVSFQMNSLKPEDTAVYYCAARSAGDRYDYWGQGTQVTVSS", "polyreactivity (PSR sort gate)": "high polyreactivity"},
      {"sequence": "QVQLVESGGGLVQAGGSLRLSCAASGSTFPRNAMGWYRQAPGKERELVATITSSGGGTYYADSVKGRFTISRDNAKNTVYLQMNSLKPEDTAVYYCNAAGPAGDAFDYWGQGTQVTVSS", "polyreactivity (PSR sort gate)": "low polyreactivity"},
      {"sequence": "QVQLVESGGGLVQAGGSLRLSCAASGRIFGYYAMGWYIQAPGKERELVAGIDWSGGNTYYADSVKGRFTISRDNAKNTVYLQMNSLKPEDTAVYYCNTEGGRDTAWYDYWGQGTQVTVSS", "polyreactivity (PSR sort gate)": "low polyreactivity"},
      {"sequence": "QVQLVESGGGLVQAGGSLRLSCAASGSTFNRNAMGWYRQAPGKERELVASISSGDNTKYADSVKGRFTISRDNAKNTVYLKMNSLKPEDTAVYYCNTVNKSLYAGLRKRWGGYYYWGQGTQVTVSS", "polyreactivity (PSR sort gate)": "high polyreactivity"},
      {"sequence": "QVQLVESAGGLVQAGGSLRLSCAASGSTFWLYAMGWYRQAPGKERELVAAISYTGTSTYYADSVKGRFTISRDNAKNTVYLQMNSLKPEDTAVYDCAADFVGLVTGYDYSWGQGTQVTVSS", "polyreactivity (PSR sort gate)": "low polyreactivity"},
      {"sequence": "QVQLVESGGGLVQAGGSLRLSCAASGFIFYRNTMGWYRQAPGKERELVAANSVSGGSTNYADSVKGRFTISRDNAKNTVYLQMNSLKPEDSAVYYCAARVRDSLVYGGWDDYWGQGTQVTVSS", "polyreactivity (PSR sort gate)": "high polyreactivity"},
      {"sequence": "QVHLVESGGGLVQAGGSLRLSCDASGLTFANNAMGWYRQAPGKEREFVAAIRGSGGSTYYADSVKGRFTISRDNAKNTVYLQMNSLKPEDTAVYYCNAGYLRKYHGWFQVKFDYWGQGTQVTVSS", "polyreactivity (PSR sort gate)": "low polyreactivity"},
      {"sequence": "QVQLVESGGGVVQAGGSLRLSCAASGSIFLRYAMGWYREAPGKERELVAAITSSGGSTYYADSVKGRFTISRDNAKNTVYLQMNSLKPQDNAVYYCNARAYTRYSRLDYWGQGTQVSVSS", "polyreactivity (PSR sort gate)": "high polyreactivity"},
      {"sequence": "QVQLVESGGGLVQAGGSLRLSCAASGFIFDVYAMGWYRQAPGKERELVAAISVSSTNYADSVKGRFTISRDNAKNTVYLQMNSLKPEDTAVYYCAADTYTYFLASYLYGQYDYWGQGTQVTVSS", "polyreactivity (PSR sort gate)": "low polyreactivity"},
      {"sequence": "QDQLVESGGLLVQAGGSLRLSCAAYGSTIGVYAMGWYRQAPRKERELVAAISSSTGSTYYADSVKGRFTISRDNAKNTVYLQMIRQKPEDTAVFYCAAAGYGKVRGDYWGQGTQVSVSS", "polyreactivity (PSR sort gate)": "low polyreactivity"},
      {"sequence": "QVQLVESGGGLVQAGGSLRLSCAASGSTFSPNAMGWYRQAPGKERELVAAITYRGANTYYADSVKGRFTISRDNEKNTVYLQMNSLKPEDTAVYYCAAEYAYHHVGFGYWGQGTQVTVSS", "polyreactivity (PSR sort gate)": "low polyreactivity"},
      {"sequence": "QVQLVESGGGLVQAGGSLRLSCAASGSTFYYYAMGWYRQAPGKERELVAAISVSGASKYYADSVKGRFTISRDNAKNTVYLQMNSLKPEDTAVYYCAADEGYPGDGDYWGQGTQVTVSS", "polyreactivity (PSR sort gate)": "low polyreactivity"},
      {"sequence": "QVQLVESGGGLVQAGGSLRLSCAASGRTFANYAMGWSRQAPGKERELVAAISSGGNTYYADSVKGRFTISRDNAKNTVYLQMNSLKPEDTSVYYCNADYLIKYDYWGKGTQVTVSS", "polyreactivity (PSR sort gate)": "high polyreactivity"},
      {"sequence": "QVQLVETGGGLVQAGGSLRLSCAASGFTFYGYAMGWYRQAPGKERELVAAISSSGGRTYYADSVKGRFTISRDNAKNTVYLQMNSLKPEDTAVYYCAVDYYGKVGDDYLGQGTQVTVSS", "polyreactivity (PSR sort gate)": "low polyreactivity"},
      {"sequence": "QVQLVESGGGLVQAGGSLRLSCAASGFTFYRYGMGWYRQAPGKERELVAAINNDGTTNYADSVKGRFTISRDNAKNTVYLQMNSLKPEDTAVYYCAADYYRGRYSSRYDYWGQGTQVTVSS", "polyreactivity (PSR sort gate)": "low polyreactivity"},
      {"sequence": "QVQLVESGGGLVQAGGSLRLSCAASGRILTSNAMGWYRKAPGKERELVAAISWSGGSTYYADSVKGRFTISRENAKNSVYLHMNRLKPEDTAGYYCAAPFTTTFDYWGQGTQVTVSS", "polyreactivity (PSR sort gate)": "low polyreactivity"},
      {"sequence": "QVQLVESGGGLVQAGGTLRLSCAASGYTFPLYAMGWYRQAPVKERELVADINIGGASTYYADSVKGRFTISRDNATNTVYLQMNSLKPEDTAVYDCAKEYYDGYFPTFDYDYFGQGTQVTVSS", "polyreactivity (PSR sort gate)": "low polyreactivity"},
      {"sequence": "QVQLVESGGGLVQAGGSLRLSCAASGSISVGYTMGWYRQAPGKEREFVAVITGTGGRTRYSDSVKGRFTISRDNAKNTVYLQMNSLKPEDTAGYYCAAKIRWRGALYDYWGQGTQVTVSS", "polyreactivity (PSR sort gate)": "high polyreactivity"},
      {"sequence": "QVQLVESGGGLVQAGGSLRLSCAASGRTFRSNAMGWYRQAPGKERELVATISGRGGSTYYADSVKGRFTISRDNAKNTVYLQMNSLKPEDTAVYYCAKRTTLIRDYEYWGQGTQVTVSS", "polyreactivity (PSR sort gate)": "high polyreactivity"},
      {"sequence": "QVQLVESGGGLVQAGGSLRLSCAASGRIFFPYAMGWYRQAPGKEREFVAAITTGCGSTYYADSVKGRFTISRDNAKNTVYLQMNSLKPEDTAVYYCAKRTYSRKFRGAYNYWGQGTQVTVSS", "polyreactivity (PSR sort gate)": "high polyreactivity"},
      {"sequence": "QVHLVESGGGLVQAGGSLRLSCAASGSTFISYAMGWYRQAPGKERELVAAISRNGGRTYYADSVKGRFTISRDNAKNTVYLQMNSLKPEDTAVYYCAAAYNSYRFDYWGQGTQVTVSS", "polyreactivity (PSR sort gate)": "high polyreactivity"},
      {"sequence": "QVQLVESGGGLVQAGGSLRLSCAASGSILYPYAMGWYRQAPGKERELVAAISRGGSTNYADSVKGRFTISRDNAKDTVYLQMNSLKPEDTAVYYCATAYTRFSQRYEYYVIYWQNDYWGQGTQVTVSS", "polyreactivity (PSR sort gate)": "low polyreactivity"},
      {"sequence": "QVQLVESGGGLVQAGGSLRLSCAASGIIFWWYTRGWYRQAPGKERELVAAISRGGNTNYADSVKGRFTISRDNAKNTVYLQMNSLKPEDTAGYYCAADRHYRFWQDDYWGQGTQVTVSS", "polyreactivity (PSR sort gate)": "high polyreactivity"},
      {"sequence": "QVQLVESGGGLVQAGGSLRLSCAASGRIFRKYAMGWYRQAPGKERELVAVINDRGGSTYYADSVKGRFTISRDNAKNTVYLQMNSLKPEDTAVYYCNATGPKKDTARYDYWGQGTQVTVSS", "polyreactivity (PSR sort gate)": "low polyreactivity"},
      {"sequence": "QVQLVGVRGRLVQAGGSLRLSCAASGRTIYAYAMGWNRQAPRKERELVATITSGGSTNYADSVKGRFTISRDNAMNTFYLLMNSLKPEDTAVYYCGAGPRGYKKYDYWGHGTQVTVSS", "polyreactivity (PSR sort gate)": "low polyreactivity"},
      {"sequence": "QVQLVESGGGLVQAGGSLRLSCAAYGRIFYRNAMGWYRQAPGKERELVAAISRSGGSTYYADSVKGRFTISRDNAKNTVYLQMNSLNPEDTAVYYCNAYRYLQSGPPRYREHGSWGQGTQVTVSS", "polyreactivity (PSR sort gate)": "low polyreactivity"},
      {"sequence": "QDQLVESGGGLVQAGGSLRLSCAASGSIFRVYVMGWYRQAPGKERELVAAITSSDGSTYYADSVKGRFTISRDNAKNTVYLQMNSLKPEDTAVYYCNAEFYSPRVVVPRYWYPGDYWGQGTQVTVSS", "polyreactivity (PSR sort gate)": "low polyreactivity"},
      {"sequence": "QVQLVESGGGLVQAGGSLRLSCAACGIPLRLNAIGWYRQAPGKERELVARITWRGSTYYADSVKGRFTISRDNAKNTVYLQMNSLKPEDTAVYYCAADNRSWQPPTILPPGASDYWGQGTQVTVSS", "polyreactivity (PSR sort gate)": "low polyreactivity"},
      {"sequence": "HVQRVDSGAGLVQPRCSLRISCAASGNTFKQYAMGWYRQAPGKDRELVAAIRRSGSTYYADSVKGRFTISRDNAKYTVYLEMNSLKPEDPAVYYCNARIYRLYSTYSWTRYDYWGQGTQVTVSS", "polyreactivity (PSR sort gate)": "high polyreactivity"},
      {"sequence": "QVQLVESGGGLVQAGGSLRLSCAASGSIFYRNDMGWYRQAPGKERELVAAITWSGVNTYYADSVKGRFTISRDNAKNTVYLQMNSLKPEDTAVYYCAVPSRYWLNRGFDYWGQGTQVTVSS", "polyreactivity (PSR sort gate)": "low polyreactivity"},
      {"sequence": "QVQLVESGGGLVQAGGTLRLSCAASGIIFGVYAMGWYRQAPGKERELVAAIDGNGSSTYYADSVKGRFTISRDTAKNTVYLQMNSLKPEDTAVYYCPAGYWSYLYYWYDFDYWGQGTQVTVSS", "polyreactivity (PSR sort gate)": "low polyreactivity"},
      {"sequence": "QVQLVESGGGLVQAGGSLRLSCAASGSTFSFYAMGWYRQAPGKERELVAVFTRGGSTYYADSVKGRFTISRDNAKNTVYLQMNSLKPEDTAVYYCAARSTSNGQRSLHYGYWGQGTQVTVSS", "polyreactivity (PSR sort gate)": "low polyreactivity"},
      {"sequence": "QVQLVESGGGLVQAGGSLRLSCAASGRIFKSYAMGWYRQAPGKERELVASIRTGGTTNYADSVNGRFTISRDNAKNTVYLQMNSLKPEDTAVYDCNRGYYSYYGRYYYWGQGTQVTVSS", "polyreactivity (PSR sort gate)": "high polyreactivity"}
    ]}
  ]
}
